{"source": "the supplement of paper PMC9170038", "data": [{"tested_on": "MS2 coat protein", "assay": "apparent KD of MS2 coat protein; higher = weaker reporter binding", "conditions": "Eterna round: R107; input ligand: none", "method_in_brief": "(§1)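 Apparent KD is reported per design as the median of normalised binding-curve fits across its clusters. The RNA switches were made by on-chip transcription from Illumina sequencing clusters. SNAP-549-labelled MS2 coat protein was then added in twofold steps (0.7 or 1.5 nM to 3 µM; 0.8–1.5 h to 10–20 min per step) in 100 mM Tris-HCl pH 7.5, 80 mM KCl, 4 mM MgCl2, without or with constant ligand.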", "units": {"apparent KD of MS2 coat protein": "µM"}, "values": [{"sequence": "CGCACAUGAGGAUCACCCAUGUGAGGGCAUCGAGGACCGGUACGGCCGCCACUCGCAGGACAUGAGGAUCACCCAUGUGCCGCCG [SSTA DOUBLE!!! :-D #5]", "apparent KD of MS2 coat protein": 0.0343}, {"sequence": "UAGGCACGAGACAUGAGGAUCACCCAUGUUCGAGGACCGGUACGGCCGCCACUCGGUGGACUCAUGGUAAAGCCGGUGAGCCAAU [AK 1.2 SS Trypt (A)]", "apparent KD of MS2 coat protein": 0.0171}, {"sequence": "UGACAUUGCUCAGAUACCAGACUUGAGGAACACCCAAGUGCCAACAAGUAUAUAAUAAAAGUCCCUUGGCAGCUGAGCAAUGUCU [TheoBX 19 #MS2Left #AlternativeMS2 #Theo2]", "apparent KD of MS2 coat protein": 0.0478}, {"sequence": "GUCGGAGUCGGAAGGAGCGACAUGAGGAUCACCCAUGUCUCCCGUUAUGGGAGUUCCUUAGGUCAGGUAGGUCGCCGACUCCGAC [#1 Exclusion - Arginine B Attempt #24 (Inspired by Omei)]", "apparent KD of MS2 coat protein": 0.19}, {"sequence": "UGUAUGUGAUCUGAUACCAGUCCAACUGGUAAAACAAGAGGAUCACCCUUGUAAAAUUGGGACCCUUGGCAGCAGAUCGCAUACU", "apparent KD of MS2 coat protein": 0.472}, {"sequence": "UGUGCAGGAUGCGUAAAGGGUCUUGCGCAUCGAGGACCGGUACGGCCGCCACUCGGCUGUACAUGAGGAUCACCCAUGUCAGGGU [#1 Same State - Tryptophan A Attempt #19 (HarryS)]", "apparent KD of MS2 coat protein": 0.477}, {"sequence": "UCACAUGAGGAUCACCCAUGUGUCAGAGAAGGAGCGGCCGCAAGGCCAGGUAGGUCGCUCGGGUAGCGUGAGGAUCACCCGUGUG [#1 Exclusion - Arginine A Attempt #11 (Inspired by cyborg)]", "apparent KD of MS2 coat protein": 0.0658}, {"sequence": "AGCCAUGGAAACAUGGCGGCGGCAUGAGCGCGAGGACCGGUACGGCCGCCACUCGGGCGACAUGAGGAUCACCCAUGUUCCUCAA [ETA NP+V+V2 #21]", "apparent KD of MS2 coat protein": 0.0275}, {"sequence": "UGCCGAGACGUGGAUUACCCGUGUACCGAAGGAGCGCCCGAAAGGGCAGGUAGGUCGCGGAGGACAUGAGGAUCACCCAUGUCGA", "apparent KD of MS2 coat protein": 0.0521}, {"sequence": "ACGACAUGAGGAUCACCCAUGUGUACUGAAGGAGCGGCGGAAACGCCAGGUAGGUCGCAGUACACCUCAACCAGCGGUCCUAAGU [EAA NP+V+V2 #2]", "apparent KD of MS2 coat protein": 0.0641}, {"sequence": "AGCACUGUGACGGCCGCCACUACAUAAGUUGGGUGGUCAGGUUCAUUACAUGAGGAUCACCCAUGUAGGACCGGGUCUCAGUGCA [Omei Trp Exc B A v9]", "apparent KD of MS2 coat protein": 0.0112}, {"sequence": "GGCACAUAGUCGGCCGCCACUAGUAUAAGAUGGAAUAACAUGAGGAUCACCCAUGUAAAAGGGACUAGGACCGGGACUAUGUGCC [Rat]", "apparent KD of MS2 coat protein": 0.013}, {"sequence": "CAGUCAGUCAGUCAAUGAGUGAGCCAUGAAGGAGCGUGGGAAACCACAGGUAGGUCGCAUGGGAAACAUGAGGAUCACCCAUGUU [SSArg A #2]", "apparent KD of MS2 coat protein": 0.0255}, {"sequence": "UAUCGAAACUGAAGGAGCGAGAUGACAAACAUGAGGAUCACCCAUGUUAUGGGUUGUUAAUCUCAGGUAGGUCGCAGUGGUAGCA [Same State Arginine B GF 17]", "apparent KD of MS2 coat protein": 0.141}, {"sequence": "AUGCUGACAAGGAGGUGUUCCUCAGCUGAUACCAGCCUGGAAACAGGCCCUUGGCAGCAGCACAUGAGGAUCACCCAUGUAAUAA [(T)'-(M)'-(T1)-(T2)-(M1)-(M2)_Design1(Mismatches)]", "apparent KD of MS2 coat protein": 0.027}, {"sequence": "AGCGGAACGGAAGGGUCCCAAAAUUGUGAUACCAGCCUUGAAUCCGGCCCUUGGCAGCACAUGAGGAUCACCCAUGUACUGCGGU [Celate]", "apparent KD of MS2 coat protein": 0.011}, {"sequence": "CUAUAGAUAAGAAGGAGCGACAUGAGGAUCACCCAUGUCUACCACGUCGAAAGACGCUCAUGUCAGGUAGGUCGCUUAUUUAUAG [Astros-Eli-mod7]", "apparent KD of MS2 coat protein": 0.117}, {"sequence": "AGUCUUGAACGAAGGAGCGACGUACAUGAGGAUCACCCAUGUGUAGGAGCGAAAGCUCCACGUCAGGUAGGUCGCGUUCGAGACA [Omei Arginine B SS A v4]", "apparent KD of MS2 coat protein": 0.0117}, {"sequence": "UGAGUUAGACAAAAGUCUAGCUCUGGUGAAGGAGCGUCCGAAAGGACAGGUAGGUCGCACCACAUGAGGAUCACCCAUGUUCCUU [ArgAS 10 #OpenEnded]", "apparent KD of MS2 coat protein": 0.227}, {"sequence": "AAUUCCUAACAUGAGGAUCACCCAUGUGAAGGAGCGCCGAAUAAGGCAGGUAGGUCGCACAUGGAACAGCUGCGAAAGAGGAAAA [XArg-A 5 V1&2]", "apparent KD of MS2 coat protein": 0.0132}, {"sequence": "UGUAACAUGAGGAUCACCCAUGUGAGUGAUACCAGACUAGUGUUAGUCCCUUGGCAGCACGCUGGACAAAUGUGUAGUCUAUGCG [Same State - Theophylline A (Freestyle 20)]", "apparent KD of MS2 coat protein": 0.0727}, {"sequence": "GAAUAAAGUAGAACACAAGACUCCUGAGAAGGAGCGCAGUCAACUGCAGGUAGGUCGCUCAGGAACACAUGAGGAUCACCCAUGU [Disoonlate]", "apparent KD of MS2 coat protein": 0.0266}, {"sequence": "AUCCAGAGCCGAAGGAGCGCUAGAAGAUGACAUGAGGAUCACCCAUGUGUGUGAUGUGGCUAGCAGGUAGGUCGCGGACUGGAUU [Exclusion - Arginine B (Freestyle 13)]", "apparent KD of MS2 coat protein": 0.0224}]}, {"tested_on": "MS2 coat protein", "assay": "apparent KD of MS2 coat protein; higher = weaker reporter binding", "conditions": "Eterna round: R107; input ligand: theophylline 20 uM", "method_in_brief": "as §1", "units": {"apparent KD of MS2 coat protein": "µM"}, "values": [{"sequence": "GGACUAACCAGAAGGAGCGACGCGCAGAAACUGCAAAAUCCUCCGCACGAGGAUCACCCGUGUCAGGUAGGUCGCUGGUUAGUCG", "apparent KD of MS2 coat protein": 0.0345}, {"sequence": "UGAUCCUACAGAGAUACCAGUGCCACUGAGUGACCAGACACAUGAGGAUCACCCAUGUAACACCCUUGGCAGCUCAACUAAAGGG [Same State Theophylline B GF17]", "apparent KD of MS2 coat protein": 0.0205}, {"sequence": "UGGUACUAGGCGGCCGCCACUGGGUGAUACAUGAGGAUCACCCAUGUUUAAUGCCGAGAGGCAACCAGGACCGGGCCUAGUACAU", "apparent KD of MS2 coat protein": 0.366}, {"sequence": "AGCGACAUGCAUGAUACCAGCUACAUGAGGAUCACCCAUGUACGUCAGUAAUGACUGUGUAGCCCUUGGCAGCAUAGAGCAUGUC [Exclusion - Theophylline B (Freestyle 16)]", "apparent KD of MS2 coat protein": 0.0288}, {"sequence": "UAUAUAGAUGGACGUCAUAUAGAUGCAGAAGGAGCGUAGGAAACUACAGGUAGGUCGCUGAGGUACAUGAGGAUCACCCAUGUAG [SSArg A #19 Slice of Pi]", "apparent KD of MS2 coat protein": 0.038}, {"sequence": "CGCACAUGAGGAUCACCCAUGUGAGGGCAUCGAGGACCGGUACGGCCGCCACUCGCAGGACAUGAGGAUCACCCAUGUGCCGCCG [SSTA DOUBLE!!! :-D #5]", "apparent KD of MS2 coat protein": 0.0529}, {"sequence": "UAGGCACGAGACAUGAGGAUCACCCAUGUUCGAGGACCGGUACGGCCGCCACUCGGUGGACUCAUGGUAAAGCCGGUGAGCCAAU [AK 1.2 SS Trypt (A)]", "apparent KD of MS2 coat protein": 0.0281}, {"sequence": "UGACAUUGCUCAGAUACCAGACUUGAGGAACACCCAAGUGCCAACAAGUAUAUAAUAAAAGUCCCUUGGCAGCUGAGCAAUGUCU [TheoBX 19 #MS2Left #AlternativeMS2 #Theo2]", "apparent KD of MS2 coat protein": 0.105}, {"sequence": "CUGCCACGAACGGCCGCCACUUACAUGAGGAUCACCCAUGUGCCUGCGCACAAAGAAUGUCAAGAAAGGACCGGGUUCAAAUAGU [theeternabot_exclusion_MS2_Trp_B_41]", "apparent KD of MS2 coat protein": 0.177}, {"sequence": "GUCGGAGUCGGAAGGAGCGACAUGAGGAUCACCCAUGUCUCCCGUUAUGGGAGUUCCUUAGGUCAGGUAGGUCGCCGACUCCGAC [#1 Exclusion - Arginine B Attempt #24 (Inspired by Omei)]", "apparent KD of MS2 coat protein": 0.202}, {"sequence": "UGUAUGUGAUCUGAUACCAGUCCAACUGGUAAAACAAGAGGAUCACCCUUGUAAAAUUGGGACCCUUGGCAGCAGAUCGCAUACU", "apparent KD of MS2 coat protein": 0.409}, {"sequence": "UGUGCAGGAUGCGUAAAGGGUCUUGCGCAUCGAGGACCGGUACGGCCGCCACUCGGCUGUACAUGAGGAUCACCCAUGUCAGGGU [#1 Same State - Tryptophan A Attempt #19 (HarryS)]", "apparent KD of MS2 coat protein": 0.445}, {"sequence": "UCACAUGAGGAUCACCCAUGUGUCAGAGAAGGAGCGGCCGCAAGGCCAGGUAGGUCGCUCGGGUAGCGUGAGGAUCACCCGUGUG [#1 Exclusion - Arginine A Attempt #11 (Inspired by cyborg)]", "apparent KD of MS2 coat protein": 0.175}, {"sequence": "GGUUACUCUACGGCCGCCACUGUAAAGUAAAGAUACCUGUACAUGACAUGAGGAUCACCCAUGUACAGGACCGGGUAGUGUAACC [Tryptophan B 16]", "apparent KD of MS2 coat protein": 0.636}, {"sequence": "AAUAAUAUCCUCAUGUGAGUCGUACCAUAACGAGGACCGGUACGGCCGCCACUCGAACAUGAGGAUCACCCAUGUAGGUAUGAUA [M'-T'-T-MS2-T'' - Design 7]", "apparent KD of MS2 coat protein": 0.12}, {"sequence": "GAGCUGAUGUAGGGCGGAUAUCCGUGAGAUACCAGUACAGAAAUGUACCCUUGGCAGCUCUUCCUUACAUGAGGAUCACCCAUGU [Ex Theophylline A 26]", "apparent KD of MS2 coat protein": 0.0255}, {"sequence": "AGCCAUGGAAACAUGGCGGCGGCAUGAGCGCGAGGACCGGUACGGCCGCCACUCGGGCGACAUGAGGAUCACCCAUGUUCCUCAA [ETA NP+V+V2 #21]", "apparent KD of MS2 coat protein": 0.0541}, {"sequence": "UGCCGAGACGUGGAUUACCCGUGUACCGAAGGAGCGCCCGAAAGGGCAGGUAGGUCGCGGAGGACAUGAGGAUCACCCAUGUCGA", "apparent KD of MS2 coat protein": 0.0935}, {"sequence": "ACGACAUGAGGAUCACCCAUGUGUACUGAAGGAGCGGCGGAAACGCCAGGUAGGUCGCAGUACACCUCAACCAGCGGUCCUAAGU [EAA NP+V+V2 #2]", "apparent KD of MS2 coat protein": 0.0784}]}]}
